Assay results as given in paper doi:10.1101/2023.04.25.538284 (bioRxiv, 2023).

T1: His-MBP-SIZ1-C (Arabidopsis thaliana, UniProt Q680Q4-3 435-873)
T1 sequence (looked up): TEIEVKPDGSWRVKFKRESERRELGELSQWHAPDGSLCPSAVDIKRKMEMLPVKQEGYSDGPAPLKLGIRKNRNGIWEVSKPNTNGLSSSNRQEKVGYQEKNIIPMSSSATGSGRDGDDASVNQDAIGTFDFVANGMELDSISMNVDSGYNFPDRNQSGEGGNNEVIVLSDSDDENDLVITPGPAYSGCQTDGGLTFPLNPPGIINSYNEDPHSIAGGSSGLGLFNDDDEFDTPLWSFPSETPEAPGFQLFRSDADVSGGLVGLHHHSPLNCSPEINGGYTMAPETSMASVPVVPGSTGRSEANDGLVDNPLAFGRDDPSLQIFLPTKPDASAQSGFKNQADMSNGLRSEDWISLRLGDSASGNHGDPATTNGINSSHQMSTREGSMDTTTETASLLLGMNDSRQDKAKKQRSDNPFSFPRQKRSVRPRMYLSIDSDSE


Target: T1, His-MBP-SIZ1-C
Assay: pull-down

binding result	Binder
binds	GST-SnRK2.4 (enzyme, Arabidopsis thaliana, UniProt P43291 1-363, looked up) MDKYELVKDIGAGNFGVARLMKVKNSKELVAMKYIERGPKIDENVAREIINHRSLRHPNIIRFKEVVLTPTHLAIAMEYAAGGELFERICSAGRFSEDEARYFFQQLISGVSYCHAMQICHRDLKLENTLLDGSPAPRLKICDFGYSKSSLLHSRPKSTVGTPAYIAPEVLSRREYDGKMADVWSCGVTLYVMLVGAYPFEDQEDPKNFRKTIQKIMAVQYKIPDYVHISQDCKNLLSRIFVANSLKRITIAEIKKHSWFLKNLPRELTETAQAAYFKKENPTFSLQTVEEIMKIVADAKTPPPVSRSIGGFGWGGNGDADGKEEDAEDVEEEEEEVEEEEDDEDEYDKTVKEVHASGEVRIS
binds	GST-SnRK2.6 (enzyme, Arabidopsis thaliana, UniProt Q940H6 1-362, looked up) MDRPAVSGPMDLPIMHDSDRYELVKDIGSGNFGVARLMRDKQSNELVAVKYIERGEKIDENVKREIINHRSLRHPNIVRFKEVILTPTHLAIVMEYASGGELFERICNAGRFSEDEARFFFQQLISGVSYCHAMQVCHRDLKLENTLLDGSPAPRLKICDFGYSKSSVLHSQPKSTVGTPAYIAPEVLLKKEYDGKVADVWSCGVTLYVMLVGAYPFEDPEEPKNFRKTIHRILNVQYAIPDYVHISPECRHLISRIFVADPAKRISIPEIRNHEWFLKNLPADLMNDNTMTTQFDESDQPGQSIEEIMQIIAEATVPPAGTQNLNHYLTGSLDIDDDMEEDLESDLDDLDIDSSGEIVYAM
